Where a SMILES comes first, the peptide text is derived from it.
Experiments:
[1] = system: PDK1; test: Yeast two-hybrid interaction with PDK1; format: binding, human; settings: PDK1 L155 mutants
[2] = target: T1, PDK1 (Homo sapiens, UniProt O15530); test: Yeast two-hybrid interaction with PDK1; format: binding; design: expressed in transfected cells; host or cells: Saccharomyces cerevisiae strain Y190; settings: wild type PDK1
T1 sequence (O15530 1-556): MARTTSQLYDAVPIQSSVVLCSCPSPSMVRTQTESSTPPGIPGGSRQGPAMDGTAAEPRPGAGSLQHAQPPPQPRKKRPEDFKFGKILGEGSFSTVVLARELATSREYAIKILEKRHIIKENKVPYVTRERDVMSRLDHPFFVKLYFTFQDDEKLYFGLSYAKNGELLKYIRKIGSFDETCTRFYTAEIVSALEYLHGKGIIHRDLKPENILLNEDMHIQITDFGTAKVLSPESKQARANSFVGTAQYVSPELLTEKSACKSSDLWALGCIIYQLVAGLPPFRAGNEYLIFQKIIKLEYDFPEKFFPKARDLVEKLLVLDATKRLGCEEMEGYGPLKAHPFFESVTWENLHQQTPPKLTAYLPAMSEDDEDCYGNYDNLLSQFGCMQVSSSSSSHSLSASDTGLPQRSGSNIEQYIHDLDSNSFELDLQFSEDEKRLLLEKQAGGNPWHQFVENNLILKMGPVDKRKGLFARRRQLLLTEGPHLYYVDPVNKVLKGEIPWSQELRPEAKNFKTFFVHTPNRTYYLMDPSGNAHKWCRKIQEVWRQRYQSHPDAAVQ

[3] = target: T2, PDK1 (Homo sapiens, UniProt O15530); test: PDK1 activity towards synthetic peptide substrates T308tide or PDKtide; format: biochemical
T2 construct: Full length PDK1 (residues 1-556); made in house; host or cells: 293 cells
T2 sequence (O15530 52-556): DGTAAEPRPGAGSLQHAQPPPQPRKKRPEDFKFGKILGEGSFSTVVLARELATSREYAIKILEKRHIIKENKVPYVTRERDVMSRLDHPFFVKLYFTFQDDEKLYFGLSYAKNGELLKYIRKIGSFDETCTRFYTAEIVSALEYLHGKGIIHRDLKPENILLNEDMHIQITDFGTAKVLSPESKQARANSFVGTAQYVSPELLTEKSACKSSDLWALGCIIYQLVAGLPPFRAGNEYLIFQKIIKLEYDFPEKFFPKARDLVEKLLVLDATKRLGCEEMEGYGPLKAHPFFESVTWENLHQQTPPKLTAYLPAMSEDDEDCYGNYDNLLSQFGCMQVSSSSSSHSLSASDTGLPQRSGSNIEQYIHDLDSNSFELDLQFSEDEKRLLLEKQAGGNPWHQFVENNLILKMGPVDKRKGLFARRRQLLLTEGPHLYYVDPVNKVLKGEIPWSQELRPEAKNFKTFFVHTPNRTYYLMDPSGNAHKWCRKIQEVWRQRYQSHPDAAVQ
Protocol: FIG. 12. PDK1 is activated and stabilised through its interaction with PIFtide. (A) GST-PDK1 activity was measured in the presence of increasing concentrations of wild type (wt) PIFtide (closed circles) or a mutant D978A PIFtide (open circles) using the synthetic peptide substrate termed T308tide, as described in Material and Methods. The data was fitted to a hyperbola using the Kaleidagraph™ software. The connection needed to obtain 50% activation of PDK1 was […] for wt-PIFtide and 1.1 μM for D978A-PIFtide. The assay shown was performed in triplicate and there was less than 5% difference between each assay. Similar results were obtained in 2 further experiments (B)—The wild type GST-PDK1 (circles) or the L155D mutant of GST-PDK1 (squares) was incubated in the presence (closed symbols) or absence (open symbols) of […] PIFtife and then for 2 min at the indicated temperatures, rapidly brought to 0° C. (see Materials and Methods), and 2 min later assayed at 30° C. for 10 min using T308tide as substrate. The activity of PDK1 obtained by incubation at 30° C. was taken as 100%. The assay shown was performed in duplicate with similar results obtained in two separate experiments.
FIG. 14. […] (A) His-PDK1 was assayed for activity using as substrate the indicated concentration of either PDKtide (open triangles) or T308tide (open circles). (B) HIS-PDK1 was assayed for activity in the presence if PDKtide (25 μM closed triangles) or T308tide (100 μM closed circles) in the presence of the indicated concentrations of PIFtide. The assay was performed in triplicates with less than 5% difference between the triplicate samples. Similar results were obtained in 3 separate experiments.
PDK1's ability to phosphorylate Thr308 of PKBα was measured using a mutant of GST-PKBα in which Ser473 was mutated to Asp (GST-473D PKBα) in the presence of phospholipid vesicles containing sn-1-stearoyl-2-arachidonoyl-D-PtdIns (3, 4, 5)P3 [13]. The ability of wild type and mutant PDK1 to phosphorylate the synthetic peptides T308tide or PDKtide was carried out in 20 μl assays containing 50 mM Tris/HCl pH 7.5, 0.1% 2-mercaptoethanol 10 mM MgCl2, 100 μM [γ^32P]ATP (˜500 cpm/pmol) 0.5 μM microcystin-LR.PDK1 and the peptide concentrations indicated under Results. After incubation for 10 min at 30° C. the reaction was stopped by addition of 20 μl of 150 mM phosphoric acid. 35 μl of the resultant mixture was spotted into P81 phosphocellulose paper (2×2 cm) and the papers washed and analysed as described previously for assays of MAP kinase. […] Control assays were carried out in parallel in which either PDK1, or peptide substrate were omitted; these values were always less than 5% of the activity measured in the presence of these reagents. […]

[4] = target: T1, PDK1; test: Glutathione-Sepharose pull-down of PDK1 with S6K1 or SGK1 from 293 cells; format: binding; design: Full length PDK1 (residues 1-556); made in house; host or cells: 293 cells; settings: Flag-tagged S6K1 forms; wild type GST-PDK1
Protocol: FIG. 21. Interaction of S6K1 and SGK1 with PDK1. 293 cells were transiently transfected with DNA constructs expressing GST, GST-PDK1 wt or PDK1 L155E together with constructs expressing either wild type or the indicated mutants or truncations of HA tagged S6K1 (A) or wild type GST-ΔN-SGK1 or 422D mutant. 36 h post transfection the cells were lysed and GST fusion protein was purified by affinity chromatography on glutathione-Sepharose beads. Aliquots were electrophoresed on a 10% SDS-polyacrylamide gel, stained with Coomassie Blue, or immunoblotted using an anti-FLAG antibody to detect FLAG-S6K1 and anti-Myc antibody to detect Myc-PDK1. To establish that the wild type and mutant proteins were expressed at similar levels, […] of total lysate was electrophoresed on a 10% SDS-polyacrylamide gel and immunoblotted using the indicated antibodies. Duplicates of each condition are shown. Similar results were obtained in two different experiments.
Binding of PDK1 to SGK1 and S6K1. For the data presented in FIG. 22, 293 cells were cotransfected with 10 μg of the wild type or mutant PDK1 plasmid and 10 μg of either the wild type or mutant S6K1 or SGK1. […] The gels were either stained with Coomassie blue, or analysed by immunoblotting with either anti-Flag or anti-Myc antibodies (described below).

PKACT: C-terminal fragment of PKA composed of residues 129-350
two-hybrid interaction with L155S, L155D or L155E mutants of PDK1 [1]: greatly reduced
two-hybrid interaction with full length PDK1 [2]: positive interaction

KTFCGTPEYLAPEVRREPRILSEEEQEMFRDFDYLADWC [PDKtide, 39 amino acid polypeptide composed of T308tide fused to PIFtide]
rate of phosphorylation by PDK1 relative to T308tide ([3]; assayed at 100 μM): over 100 fold

full length S6K1[T412E]: Flag epitope tagged full length S6K1 with Thr412 to Glu
interaction with GST-PDK1 [4]: failed to interact

CC(C)C[C@H](NC(=O)[C@H](Cc1ccc(O)cc1)NC(=O)[C@H](CCC(=O)O)NC(=O)[C@@H]1CCCN1C(=O)[C@@H](NC(=O)CNC(=O)[C@H](CS)NC(=O)[C@H](Cc1ccccc1)NC(=O)[C@@H](NC(=O)[C@@H](N)CCCCN)[C@@H](C)O)[C@@H](C)O)C(=O)N[C@@H](C)C(=O)N1CCC[C@H]1C(=O)N[C@@H](CCC(=O)O)C(=O)N[C@H](C(=O)N[C@@H](CCCNC(=N)N)C(=O)N[C@@H](CCCNC(=N)N)C(=O)O)C(C)C [T308tide, KTFCGTPEYLAPEVRR, reference compound] (H-KTFCGTPEYLAPEVRR-OH)
Km ([3]; read-out: Km of PDK1 for peptide substrate): > 10 mM

full length S6K1: Flag epitope tagged full length S6K1
interaction with GST-PDK1 [4]: failed to interact
